Experimental data published in PMC3358304.

Assay: immunoblot of total Akt, MCF-7
Settings: glycan lost; control: wild type

Akt (AKT1): T305Y
expression_or_secretion: no change

Akt (AKT1): T312Y
expression_or_secretion: no change
